T1: full-length UVR8 (UV … LOCUS8) (Arabidopsis thaliana), Q9FN03
T1 chain: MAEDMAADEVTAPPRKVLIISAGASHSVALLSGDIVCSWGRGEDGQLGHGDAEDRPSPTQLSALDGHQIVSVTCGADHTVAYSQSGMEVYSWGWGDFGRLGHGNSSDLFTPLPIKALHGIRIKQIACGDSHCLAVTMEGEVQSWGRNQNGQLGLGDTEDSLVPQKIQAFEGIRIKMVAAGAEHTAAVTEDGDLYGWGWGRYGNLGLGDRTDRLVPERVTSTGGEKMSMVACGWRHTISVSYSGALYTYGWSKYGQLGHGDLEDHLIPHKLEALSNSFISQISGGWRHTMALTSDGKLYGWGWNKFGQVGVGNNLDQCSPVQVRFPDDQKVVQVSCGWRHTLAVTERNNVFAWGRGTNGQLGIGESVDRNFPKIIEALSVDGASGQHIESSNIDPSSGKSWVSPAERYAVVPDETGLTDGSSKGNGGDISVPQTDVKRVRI


How the values were obtained:
[1] = target: the molecule itself; test: native MS; native ion mobility MS with nESI, sample in 250 mM ammonium acetate pH 6.8, 5–20 μM UVR8, in the absence of UV-B light
[2] = target: T1, full-length UVR8 (UV … LOCUS8) …; test: as above; conditions: remark: other sources report otherwise

Row | Binder | stoichiometry N [1] | stoichiometry N [2]
1 | UVR8 core domain (residues 12–381, UVR8^12–381) (domain or fragment, Arabidopsis thaliana, UniProt Q9FN03 12-381, looked up, Homodimer in the dark, monomer after UV-B; also called truncated UVR8; source: E. coli Rosetta 2 (DE3) pLysS, purified (Ni-NTA, Strep-Tactin XT, cleaved from the resin with SUMO protease); not shown: 7xHis, N-terminal, cleaved; Strep II, N-terminal, cleaved; SUMO, N-terminal, cleaved) APPRKVLIISAGASHSVALLSGDIVCSWGRGEDGQLGHGDAEDRPSPTQLSALDGHQIVSVTCGADHTVAYSQSGMEVYSWGWGDFGRLGHGNSSDLFTPLPIKALHGIRIKQIACGDSHCLAVTMEGEVQSWGRNQNGQLGLGDTEDSLVPQKIQAFEGIRIKMVAAGAEHTAAVTEDGDLYGWGWGRYGNLGLGDRTDRLVPERVTSTGGEKMSMVACGWRHTISVSYSGALYTYGWSKYGQLGHGDLEDHLIPHKLEALSNSFISQISGGWRHTMALTSDGKLYGWGWNKFGQVGVGNNLDQCSPVQVRFPDDQKVVQVSCGWRHTLAVTERNNVFAWGRGTNGQLGIGESVDRNFPKIIEALSVDG | 2 | –
2 | full-length UVR8 (UV … LOCUS8), Q9FN03 1-440 (natural protein) MAEDMAADEVTAPPRKVLIISAGASHSVALLSGDIVCSWGRGEDGQLGHGDAEDRPSPTQLSALDGHQIVSVTCGADHTVAYSQSGMEVYSWGWGDFGRLGHGNSSDLFTPLPIKALHGIRIKQIACGDSHCLAVTMEGEVQSWGRNQNGQLGLGDTEDSLVPQKIQAFEGIRIKMVAAGAEHTAAVTEDGDLYGWGWGRYGNLGLGDRTDRLVPERVTSTGGEKMSMVACGWRHTISVSYSGALYTYGWSKYGQLGHGDLEDHLIPHKLEALSNSFISQISGGWRHTMALTSDGKLYGWGWNKFGQVGVGNNLDQCSPVQVRFPDDQKVVQVSCGWRHTLAVTERNNVFAWGRGTNGQLGIGESVDRNFPKIIEALSVDGASGQHIESSNIDPSSGKSWVSPAERYAVVPDETGLTDGSSKGNGGDISVPQTDVKRVRI | – | 2

— paper PMC6347689, “Native mass spectrometry reveals the conformational diversity of the UVR8 photoreceptor” (Proceedings of the National Academy of Sciences of the …, 2019)
